In assay [1] the test system is cyclic flow reductions (CFRs) in injured, stenosed femoral artery. The experiment in a line: Folts thrombosis model in baboons: length/inhibition of cyclic flow reductions (CFRs). In kind it is in vivo, baboon (Papio ursinus). The protocol: The study protocol that was applied is the original Folts model and some modifications described below (Folts J D, et al, Circulation. 1976; 54:365-370). Healthy male or female baboons (Papio ursinus) were used. The animals were 8-17 kg of weight and were disease-free for at least 2 weeks prior to use. The baboons were fed with dry standard food only. The baboons were used at different time points. […] Animals were anaesthetized and body temperature is maintained at 37° C. with a heating table. A segment of a femoral artery was dissected free from surrounding tissue. A shunt was placed between the femoral vein and femoral artery to obtain high shear rates. The mean and phasic blood flow was recorded continuously throughout the experiment. Baseline flow was recorded for 20 minutes. […] A clamp was placed over the injured site to create an external stenosis. A gradual decline in blood flow due to platelet adhesion and aggregation was observed. When flow was reduced to zero, blood flow was restored by opening the clamp to dislodge the platelet-rich thrombus. This repetitive pattern of decreasing blood flow following mechanical restoration is referred to as cyclic flow reductions (CFRs). Additional endothelial injury was repeated if needed to finally obtain stable CFRs in these baboons. The number of times the thrombus needed to be dislodged determines the number of CFRs. FIG. 24 illustrates blood flow pattern during the Folts model in baboons. […] This procedure was repeated for several times with escalating doses of the test substance. The anti-thrombotic effect was quantified by comparing the length of CFRs before and after drug administration. When full inhibition of CFRs was observed, a new injury was applied in order to confirm that the inhibition was an effect of the treatment but not of a natural healing phenomenon.

The test system of assay [2] is platelet adhesion to collagen type III. The experiment in a line: Inhibition of platelet adhesion by nanobodies in a flow (perfusion) chamber. In kind it is cell-based, human. The settings on record: for % Platelet adhesion at 2 μg/ml: human blood, collagen type III, wall shear rate 1600 s^−1. The protocol:
The protein samples were analysed in a perfusion chamber. Thermanox coverslips (Nunc) were soaked overnight in 80% ethanol, rinsed thoroughly with distilled water and air-dried. Human placental collagen type III (Sigma) was solubilized in 0.05 mol/l acetic acid and sprayed on the coverslips at a final density of 30 μg/cm^2 with a retouching airbrush. After spraying the coverslips were blocked with 1% human albumin solution in PBS for at least 1 hour at RT. Perfusions were performed with a single-pass perfusion chamber under non-pulsatile flow conditions using a modified small perfusion chamber with a slit height of 0.1 mm and a slit width of 2 mm. Blood was obtained by venipuncture from healthy volunteers and anti-coagulated with Penta/PPACK. Triplicate coverslips were inserted into the chamber. […] After a perfusion run, the coverslip was taken from the chamber, rinsed in Hepes buffered saline (10 mM Hepes, 150 mM NaCL, ph 7.4), fixed in 0.5% glutaraldehyde in PBS, dehydrated in methanol and stained with May-Grünwald and Giemsa (Riedel de Haën). Platelet deposition was evaluated as platelet surface coverage using light microscopy and computer-assisted analysis.

Where [3] appears, read: number of experiments with inhibition / total number of independent repeats.

Substitutions are numbered along the chain they refer to. Where “and” joins values, the source holds several entries; their conditions need not be identical. Equal entries are not always repeated.

For the molecule `CC(=O)Oc1ccccc1C(=O)O` [Aspegic], the “Length of CFRs” value in assay [1] (Aspegic final dose 1 mg/kg, individual baboons 3, 4, 5, 1 mg/kg) is 149 s and 164 s and 135 s; in assay [1] (Aspegic final dose 2.5 mg/kg, individual baboons 3, 4, 5, 2.5 mg/kg), 102 s and 325 s and 115 s; in assay [1] (Aspegic final dose 5 mg/kg, individual baboons 3, 4, 5, 5 mg/kg), 102 s and 1800 s and 245 s; in assay [1] (Aspegic final dose 10 mg/kg, individual baboons 3, 4, 5, 10 mg/kg) it was 113 s and 905 s and 156 s; in assay [1] (Aspegic final dose 20 mg/kg, individual baboons 3, 4, 5, 20 mg/kg), 125 s and 657 s and 169 s; in assay [1] (Aspegic final dose 40 mg/kg, individual baboons 3, 5, 40 mg/kg), 110 s and 145 s. The “Length of CFRs” value in assay [1] (Aspegic final dose 80 mg/kg, baboon 3) amounted to 129 s; in assay [1] (Aspegic-treated, after Epinephrin, baboon 4) it was 161 s. The “Inhibition of CFRs” value was “no inhibition of CFRs could be obtained” in assay [1] (baboon 3 and 5, doses as high as 80 and 40 mg/kg respectively); 0/3 in assay [1] (setting [3]). In addition, in assay [1] (baboon 4), the “dose at which full inhibition of CFRs was obtained” value worked out at 5 mg/kg. Moreover, in assay [1] (baboon 4, higher doses and upon new injury, CFRs returned), the “mean length of the CFRs versus before administration” value was 3-4 times. For the same molecule, the “Inhibition of CFRs after administration of Epinephrin” value in assay [1] (setting [3]) is listed as 0/1. Moreover, the “Inhibition of CFRs after new injury” value in assay [1] (setting [3]) is recorded as 0/3.

B1: 12A2-GS9-12A2 (protein)
VHH: QVKLEESGGGLVQAGGALRLSCAASGRTFSYNPMGWFRQAPGKERDLVAAISRTGGSTYYPDSVEGRFTISRDNAKRMVYLQMNNLKPEDTAVYYCAAAGVRAEDGRVRTLPSEYTFWGQGTQVTVSSGGGGSGGGSEVQLVESGGGLVQAGGALRLSCAASGRTFSYNPMGWFRQAPGKERDLVAAISRTGGSTYYPDSVEGRFTISRDNAKRMVYLQMNNLKPEDTAVYYCAAAGVRAEDGRVRTLPSEYTFWGQGTQVTVSS
Regarding B1, the “% Platelet adhesion” value is listed as 81 ± 1% in assay [2] (0.1 μg/ml nanobody, Table 23); 73 ± 1% in assay [2] (0.2 μg/ml nanobody, Table 23); 40 ± 2% in assay [2] (0.4 μg/ml nanobody, Table 23).

B2: 12C9: anti-vWF nanobody, SEQ ID NO: 65 (protein)
VHH: AVQLVESGGGLVQPGGSLKLSCATSGSIFSSSAMAWYRQASGKQRELVATITSGGRTSYADSVKGRFTISRDNAKNTVYLQMNSLKPEDTAVYDCNFVVDGKRAPWGQGTQVTVSS
For B2, in assay [2] (2 μg/ml nanobody), the “% Platelet adhesion at 2 μg/ml” value amounted to 68 ± 8%.

B3: 12A2H4: humanised 12A2 nanobody, SEQ ID NO: 92 (protein)
VHH: EVQLVESGGGLVQPGGSLRLSCAASGRTFSYNPMGWFRQAPGKGRELVAAISRTGGSTYYPDSVEGRFTISRDNAKRSVYLQMNSLRAEDTAVYYCAAAGVRAEDGRVRTLPSEYTFWGQGTQVTVSS
B3: the “% Platelet adhesion” value in assay [2] (0.5 μg/ml nanobody, Table 32) was determined as 61 ± 1%; in assay [2] (0.7 μg/ml nanobody, Table 31), 55 ± 1%; in assay [2] (1 μg/ml nanobody, Table 32), 57 ± 1%; in assay [2] (2 μg/ml nanobody, Table 32), 46 ± 5%.

B4: 12A2H1: humanised 12A2 nanobody, SEQ ID NO: 90 (protein)
VHH: B3 VHH with S78M
Regarding B4, the “% Platelet adhesion” value in assay [2] (0.5 μg/ml nanobody, Table 32) amounted to 40 ± 9%; in assay [2] (0.7 μg/ml nanobody, Table 31), 49 ± 1%; in assay [2] (1 μg/ml nanobody, Table 32) it was 43 ± 3%; in assay [2] (2 μg/ml nanobody, Table 32), 38 ± 5%.

B5: 12B6-3a-12B6 (protein)
VHH: QVQLVESGGGLVQAGGALRLSCAASGRTFSYNPMGWFRQAPGKERDVVAAISRTGGSTYYARSVEGRFTISRDNAKRMVYLQMNALKPEDTAVYYCAAAGVRAEDGRVRTLPSEYNFWGQGTQVTVSSAAAEVQLVESGGGLVQAGGALRLSCAASGRTFSYNPMGWFRQAPGKERDVVAAISRTGGSTYYARSVEGRFTISRDNAKRMVYLQMNALKPEDTAVYYCAAAGVRAEDGRVRTLPSEYNFWGQGTQVTVSS
As to B5, the “% Platelet adhesion” value is 15 ± 6% in assay [2] (0.3 μg/ml nanobody, Table 41) and 8 ± 6% in assay [2] (0.6 μg/ml nanobody, Table 41).

B6: 12A2-3a-12A2 (protein)
VHH: QVKLEESGGGLVQAGGALRLSCAASGRTFSYNPMGWFRQAPGKERDLVAAISRTGGSTYYPDSVEGRFTISRDNAKRMVYLQMNNLKPEDTAVYYCAAAGVRAEDGRVRTLPSEYTFWGQGTQVTVSSAAAEVQLVESGGGLVQAGGALRLSCAASGRTFSYNPMGWFRQAPGKERDLVAAISRTGGSTYYPDSVEGRFTISRDNAKRMVYLQMNNLKPEDTAVYYCAAAGVRAEDGRVRTLPSEYTFWGQGTQVTVSS
For the molecule B6, the “% Platelet adhesion” value worked out at 74 ± 5% in assay [2] (0.1 μg/ml nanobody, Table 23); 50 ± 3% in assay [2] (0.2 μg/ml nanobody, Table 23); 10 ± 8% in assay [2] (0.3 μg/ml nanobody, Table 41); 33 ± 0% in assay [2] (0.4 μg/ml nanobody, Table 23); 4 ± 3% in assay [2] (0.6 μg/ml nanobody, Table 41).

B7: 12B1: anti-vWF nanobody, SEQ ID NO: 61 (protein)
VHH: QVQLVESGGGLVQAGGSLRLSCAASGRTFSNYGMGWFRQAPGKEREFVTSISWSGTYTAYSDNVKGRFTISRDNAKNTVYLQMDSLKPEDTAVYYCAAQSRYRSNYYDHDDKYAYWGQGTQVTVSS
Turning to B7, the “% Platelet adhesion at 2 μg/ml” value in assay [2] (2 μg/ml nanobody) was found to be 56 ± 3%.

B8: 12E3: anti-vWF nanobody, SEQ ID NO: 64 (protein)
VHH: B7 VHH with Q1E, S30N, T56S, S61A, E89G, R103S
On to B8, for which the “% Platelet adhesion at 2 μg/ml” value in assay [2] (2 μg/ml nanobody) was found to be 54 ± 1%.

B9: 14F8: anti-vWF nanobody, SEQ ID NO: 66 (protein)
VHH: AVQLVESGGGLVQAGESLRLSCTSSGRAFSYYNTGWFRQAPGKEREFVAAISWSGGLTYYADSVKGRFTISRDNAKDMVYLQMASLKPEDTAVYYCAANRRQKTVQMGERAYDYWGQGTQVTVSS
Turning to B9, the “% Platelet adhesion at 2 μg/ml” value in assay [2] (2 μg/ml nanobody) is given as 51 ± 10%.

B10: 12A2H4-3a-12A2H4 (protein)
chain: EVQLVESGGGLVQPGGSLRLSCAASGRTFSYNPMGWFRQAPGKGRELVAAISRTGGSTYYPDSVEGRFTISRDNAKRSVYLQMNSLRAEDTAVYYCAAAGVRAEDGRVRTLPSEYTFWGQGTQVTVSSAAAEVQLVESGGGLVQPGGSLRLSCAASGRTFSYNPMGWFRQAPGKGRELVAAISRTGGSTYYPDSVEGRFTISRDNAKRSVYLQMNSLRAEDTAVYYCAAAGVRAEDGRVRTLPSEYTFWGQGTQVTVSS
With B10, the “% Platelet adhesion” value worked out at 10 ± 6% in assay [2] (0.3 μg/ml nanobody, Table 41) and 8 ± 4% in assay [2] (0.6 μg/ml nanobody, Table 41).

B11: 12A5: anti-vWF nanobody, SEQ ID NO: 60 (protein)
VHH: AVQLVESGGGLVQPGGSLRLSCLASGRIFSIGAMGMYRQAPGKQRELVATITSGGSTNYADPVKGRFTISRDGPKNTVYLQMNSLKPEDTAVYYCYANLKQGSYGYRFNDYWGQGTQVTVSS
On to B11, for which the “% Platelet adhesion” value in assay [2] (0.2 μg/ml nanobody, Table 15) is recorded as 50 ± 7%; in assay [2] (0.4 μg/ml nanobody, Table 15), 27 ± 10%; in assay [2] (0.6 μg/ml nanobody, Table 15), 2 ± 2%. Besides, in assay [2] (2 μg/ml nanobody), the “% Platelet adhesion at 2 μg/ml” value was found to be 10 ± 3%. Moreover, the “inhibition of platelet adhesion to collagen type III” value in assay [2] (perfusion chamber at high shear rate) is listed as “clearly inhibit platelet adhesion”. Further, the “concentration with full inhibition of platelet adhesion” value in assay [2] (tested at 0.2, 0.4 and 0.6 μg/ml, same donor) worked out at 0.6 µg/mL.

B12: 12D11: anti-vWF nanobody, SEQ ID NO: 63 (protein)
VHH: AVQLVDSGGGLVQAGGSLRLSCTASERTTFSSYTLGWFRQAPGKEREFVGGISWSGVSTDYAEFAKGRFTISRDHAANTVYLEMNSLKPEDTAVYYCAALGRYRSNWRNIGQYDYWGQGTQVTVSS
Turning to B12, the “% Platelet adhesion at 2 μg/ml” value in assay [2] (2 μg/ml nanobody) is 61 ± 7%.

Values taken from US7807162B2, “Single domain VHH antibodies against von Willebrand factor” (Ablynx N.V., priority 2005, dated 2010).
